In publication PMC314469, “Protein Interaction Networks by Proteome Peptide Scanning” (PLoS Biology, 2004):

T1: Myo5 SH3 (MYO5_YEAST), Q04439
T1 chain: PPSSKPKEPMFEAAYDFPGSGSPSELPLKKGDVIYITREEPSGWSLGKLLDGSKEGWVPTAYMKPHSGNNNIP

T2: Abp1 SH3 (ABP1_YEAST), P15891
T2 chain: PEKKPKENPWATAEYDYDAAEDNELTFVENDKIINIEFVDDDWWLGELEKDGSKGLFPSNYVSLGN


Columns and labels:
[1] = molecular target: T1, Myo5 SH3 (MYO5_YEAST), Q04439; assay: SPOT array
[2] = molecular target: T2, Abp1 SH3 (ABP1_YEAST), P15891; assay: SPOT array

| normalised SPOT signal, Boehringer light units (BLU); mean over the file's lines of this peptide [1] | normalised SPOT signal, Boehringer light units (BLU); mean over the file's lines of this peptide [2] | Binder |
| --- | --- | --- |
| 86 | – | PPEGFPEPLNPTNF [YIL005W 29-42] |
| 81.4 | – | NLAPFTQPDFPFQT [YOR260W 14-27] |
| – | 6.9 | NHGFLLPPENIKP [YHR132C 397-409] |
| – | 1120 | NIPKPHIPYFMKP [YBR286W 82-94] |
| – | 91.9 | MTPGASANALPPKP [YDL195W 796-809] |
| – | 38 | NEAAKPSFSFPGKP [YOR098C 607-620] |
| – | 103 | NSVDRHAFANPDKP [YLR153C 95-108] |
| 2790 | – | PLTTLPPPRLPSIQ [YCR033W 1026-1039] |
| 104 | – | PLNQLPNPAMPLLH [YER169W 383-396] |
| – | 117 | NIETHENERLPPRP [YAL023C 524-537] |
| 126 | – | PEDFLPPPPKPHFA [YLR285W 17-30] |
| – | 77.6 | NEYKGLITIIPSKP [YOL152W 549-562] |
| 122 | – | PLFGLSIPKTPTLK [YBL035C 102-115] |
| 53300 | – | PAPPPPPPPPPPP [YNL271C 1278-1290] |
| – | 61.2 | NESFSLPPPQPKP [YFL044C 78-90] |
| 217 | – | NLHGYGHPNPPNEK [YHR135C 370-383] |
| 411 | – | PFSSMKEPFIPQSS [YBR172C 147-160] |
| 93.7 | – | PEVKHFSPSTPIML [YKR055W 169-182] |
| 165 | – | NPLYWLLPSHPYTI [YGL160W 297-310] |

| normalised SPOT signal, Boehringer light units (BLU); mean over the file's lines of this peptide [1] | normalised SPOT signal, Boehringer light units (BLU); mean over the file's lines of this peptide [2] | Binder |
| --- | --- | --- |
| 98.9 | – | PFIDYEFPHLPNEL [YOR037W 215-228] |
| – | 97 | NHASENTPRDGKP [YLR356W 137-149] |
| 86.5 | – | NPFPFPIPEIPSTQ [YOR181W 270-283] |
| – | 185 | NFEVSHKPTVEKP [YPL095C 323-335] |
| – | 206 | NDRNNADPEKKKP [YDR457W 2434-2446] |
| 82.5 | – | PEGVFSIPAPPPNV [YGR094W 179-192] |
| 47000 | – | PLPTFSAPSLPQQS [YLR337C 659-672] |
| 331 | – | PEVHHHSPGVPSLV [YLR229C 99-112] |
| 190 | – | NPGSMSMPGVPTSM [YNL288W 26-39] |
| – | 75.1 | NIEDITEPKPDKP [YDR363W 94-106] |
| 4750 | – | PLAPLPPPPPPSVA [YLR337C 421-434] |
| – | 539 | NGEEAEEVVVPEKP [YJL214W 46-59] |
| – | 38.2 | NIPPPPPPPPPKP [YMR089C 153-165] |
| – | 93.7 | NIKVLLNPKLGKP [YLL007C 14-26] |
| 145 | – | PFYTMPDPANPKYS [YLL018C 454-467] |
| 130 | – | PETRMDLPFSPEVN [YDR171W 234-247] |
| – | 2430 | MTAAKPNPYAAKP [YDL182W 1-13] |
| 172 | – | PFGTFTLPADPEYK [YNL134C 307-320] |
| – | 4880 | MTSNNLPPGKRKP [YBR222C 343-355] |

| normalised SPOT signal, Boehringer light units (BLU); mean over the file's lines of this peptide [1] | normalised SPOT signal, Boehringer light units (BLU); mean over the file's lines of this peptide [2] | Binder |
| --- | --- | --- |
| – | 3450 | NHAINRIPIKLRP [YGL156W 1061-1073] |
| 75.6 | – | NLLSLENPVVPSHY [YIL137C 4-17] |
| – | 267 | MSKLLKHGWKPLRP [YJR126C 471-484] |
| – | 100 | NATGNHTPKWFRP [YLR308W 199-211] |
| – | 2450 | MSISSKIRPTPRKP [YER118C 1-14] |
| – | 54.4 | NEDELDSPVQKKP [YKR086W 102-114] |
| – | 264 | MRSNPQQPPQDKP [YPL204W 475-487] |
| – | 26.2 | NESAPLQPFPERP [YFL041W 455-467] |
| – | 146 | NATGKHFPKYFRP [YLR307W 189-201] |
| 157 | – | PEHLFNNPQNPMDF [YBR238C 623-636] |
| – | 18.5 | MSELHALLTFPERP [YDR465C 1-14] |
| – | 33.6 | NDEEIKKPTDGKP [YMR012W 785-797] |
| 248 | – | NPQSLARPPPPKRI [YKL139W 28-41] |
| – | 387 | NIKMASFLPVPEKP [YNL206C 122-135] |
| 78.7 | – | PEVLMDQPYSPLSD [YAR018C 257-270] |
| – | 285 | NHTIWVGPGKDKP [YHR015W 379-391] |
| – | 217 | NESPRNVPIMVKP [YLL043W 210-222] |
| – | 164 | NDRFSHTPQQQRP [YNL263C 17-29] |
| 107 | – | PEPTMGSPDAPPLV [YLR357W 573-586] |
